Here are results for 1 molecule from patent publication US20080242590A1, “New Method 706” (ASTRAZENECA AB, priority 2007, published 2008).

One data set deals with mouse Aβ40. Kind of data set: Mouse Aβ40 in plasma, time and dose response 1.5 and 3 hours (Example 24). The data set is classed as in vivo, C57BL/6 mice. As to the method:
The objective with this study was to evaluate the time and dose-response effect of hFc-Nep in plasma of female C57BL/6 mice after an acute treatment. The specific purpose is to find an effect on plasma Aβ40 and to correlate effect to exposure level of hFc-Nep in plasma. The γ-secretase inhibitor M-550426 is included as a positive control.
(§1) 13 weeks old female C57BL/6 mice (10 mice/group) received vehicle or hFc-Nep at 1 or 5 mg/kg as a single intravenous injection. M-550426 was administrated per orally at 300 μmol/kg 3 hours before termination. A blank group was also included in the study.
(§2) Blood was sampled from vehicle- and compound-treated animals at 1.5 and 3 hours after dose. Blood was withdrawn from anaesthetized mice by heart puncture into pre-chilled microtainer tubes containing EDTA. Blood samples were immediately put on ice prior to centrifugation. Plasma was prepared by centrifugation for 10 minutes at approximately 3000×g at +4° C. within 20 minutes from sampling. After blood sampling, mice were terminated. […] Mouse Aβ40 levels in plasma were analysed by commercial ELISA kit obtained from Biosource. The concentrations of Fc-Nep in plasma and in the formulations were assayed according to the procedures described in Example 27.

Data set [1] in a line: Observations of animal health (Example 24). The data set is classed as in vivo, C57BL/6 mice. The conditions noted are these: 1 or 5 mg/kg single i.v., whole experiment.
The next data set concerns Aβ 1-42. Kind of data set: Degradation of Aβ 1-42 in human plasma pool (Example 28). The data set is classed as biochemical. Conditions: room temperature, 1 hour. The protocol:
Blood from twelve individuals (6 females and 6 males) were collected into pre-chilled heparin-plasma tubes at the healthcare centre (AstraZeneca) at three different time points. Plasma was prepared by centrifugation at 2500×g for 20 min at 4° C. Plasma samples were collected and transferred to pre-chilled polypropylene tubes and immediately frozen and stored at −70° C. prior to use. Plasma was thawed and pooled from 12 individuals just before the experiment. Aβ 1-40 and 1-42 in plasma pool was degraded by human Fc-Nep or mouse Fc-Nep with corresponding vehicles (50 mM Tris-HCl, 150 mM NaCl pH 7.5). The following final concentrations of the Fc-Nep constructs were used, 100, 32, 10, 3.2, 1, 0.3, 0.1 and […] and the degradation occurred at room temperature for 1 hour while shaking on an orbital shaker. The enzymatic reaction was stopped by adding Phosphoramidone (10 μM final concentration). Concentration of amyloid β 1-40 in human plasma pool was measured using ELISA kit (Biosource; KHB3481) according to the manufacturers instructions.
A final concentration of 4.7 mM EDTA was added to the tubes before the concentration of Aβ42 was analyzed using ELISA kit Innotest® β-Amyloid1-42 (Innogenetics, lot#177462, ref#80177) according to the manufacturers instructions.

Another data set relates to amyloid β 1-40. Kind of data set: Degradation of Aβ 1-40 in APPswe-tg mouse plasma pool (Example 28). The data set is classed as biochemical. Conditions: room temperature, 1 hour. The protocol: Mouse plasma collected from 9 animals was stored at −70° C. Plasma was thawed and pooled just before the experiment. Aβ 1-40 and 1-42 in plasma pool was degraded by human Fc-Nep or mouse Fc-Nep with corresponding vehicles (50 mM Tris-HCl, 150 mM NaCl pH 7.5). […] The enzymatic reaction was stopped by adding Phosphoramidone (10 μM final concentration).
After degradation, before concentration of amyloid β 1-40 in tg-mouse plasma pool was measured using ELISA kit (Biosource; KHB3481), the plasma samples were diluted 20 times in standard diluent buffer, according to manufacturers instructions.

For data set [2], the system named is fluorogenic peptide substrate V—Mca-Arg-Pro-Gly-Phe-Ser-Ala-Phe-Lys(Dnp)-OH. The experiment in a line: Neprilysin enzyme activity FRET assay, purified protein. In kind it is biochemical. Conditions: purified fusion protein. As to the method:
The Neprilysin enzymatic activity was determined in a fluorescence resonance energy transfer (FRET) assay. Recombinant Human Neprilysin (R&D Systems), culture medium from Neprilysin or Fc-Neprilysin producing cells (AZ Sodertalje) or purified Neprilysin or Fc-Neprilysin was added into 96-well plate containing 10 μM of fluorogenic peptide substrate V—Mca-Arg-Pro-Gly-Phe-Ser-Ala-Phe-Lys(Dnp)-OH (R&D Systems). The final concentration of the control recombinant human Neprilysin was 0.1 or 0.25 μg/ml. 10 μM of Neprilysin inhibitor phosphoramidone (BIOMOL) was added into some wells in order to control the specificity of the signal in the assay and verify the specific Neprilysin activity. Following addition of all components to wells, plate was immediately placed into a fluorescent plate reader (Ascent) and signal was recorded for every minute for 20 minutes at the excitation 340 nm and emission 405 nm. The activity of enzyme was evaluated by calculating the velocity of reaction−Slope coefficient=ΣΔRFU/Δt. In order to compare the specific activity of the commercial recombinant Neprilysin and Fc-Neprilysin fusion protein, we introduced the specific activity coefficient, which is calculated according to this formula: Specific activity=slope coefficient/pmol of Neprilysin or monomer of Fc-Neprilysin in assay. […]

A short description of data set [3]: Plasma exposure (Example 24). The data set is classed as in vivo, C57BL/6 mice. The protocol:
as §1, §2

Where [4] appears, read: highest concentration 100 μg/ml.

B1: Fc-Neprilysin: extracellular domain of human Neprilysin fused to the human IgG2 Fc domain (including hinge), Fc at N-terminus; SEQ ID NO 11 (protein)
chain: ERKCCVECPPCPAPPVAGPSVFLFPPKPKDTLMISRTPEVTCVVVDVSHEDPEVQFNWYVDGVEVHNAKTKPREEQFNSTFRVVSVLTVVHQDWLNGKEYKCKVSNKGLPAPIEKTISKTKGQPREPQVYTLPPSREEMTKNQVSLTCLVKGFYPSDIAVEWESNGQPENNYKTTPPMLDSDGSFFLYSKLTVDKSRWQQGNVFSCSVMHEALHNHYTQKSLSLSPGKYDDGICKSSDCIKSAARLIQNMDATTEPCTDFFKYACGGWLKRNVIPETSSRYGNFDILRDELEVVLKDVLQEPKTEDIVAVQKAKALYRSCINESAIDSRGGEPLLKLLPDIYGWPVATENWEQKYGASWTAEKAIAQLNSKYGKKVLINLFVGTDDKNSVNHVIHIDQPRLGLPSRDYYECTGIYKEACTAYVDFMISVARLIRQEERLPIDENQLALEMNKVMELEKEIANATAKPEDRNDPMLLYNKMTLAQIQNNFSLEINGKPFSWLNFTNEIMSTVNISITNEEDVVVYAPEYLTKLKPILTKYSARDLQNLMSWRFIMDLVSSLSRTYKESRNAFRKALYGTTSETATWRRCANYVNGNMENAVGRLYVEAAFAGESKHVVEDLIAQIREVFIQTLDDLTWMDAETKKRAEEKALAIKERIGYPDDIVSNDNKLNNEYLELNYKEDEYFENIIQNLKFSQSKQLKKLREKVDKDEWISGAAVVNAFYSSGRNQIVFPAGILQPPFFSAQQSNSLNYGGIGMVIGHEITHGFDDNGRNFNKDGDLVDWWTQQSASNFKEQSQCMVYQYGNFSWDLAGGQHLNGINTLGENIADNGGLGQAYRAYQNYIKKNGEEKLLPGLDLNHKQLFFLNFAQVWCGTYRPEYAVNSIKTDVHSPGNFRIIGTLQNSAEFSEAFHCRKNSYMNPEKKCRVW
B1: the “Reduction of mouse Aβ40 in plasma compared to vehicle” value with mouse Aβ40 (1 mg/kg i.v., 1.5 hours, p=0.1638) was 17%; in the data set on mouse Aβ40 (1 mg/kg i.v., 3 hours, p<0.005), 36%; in the data set with mouse Aβ40 (5 mg/kg i.v., 1.5 hours, p<0.0001), 76%; in the data set on mouse Aβ40 (5 mg/kg i.v., 3 hours, p<0.0001), 72%. In addition, in data set [1], the “Observations of the animal health” value is listed as “no overt adverse effects”. Also, the “Degradation of Aβ 1-42 compared to plasma without treatment” value in the data set on Aβ 1-42 (setting [4]) was determined as 28%. The EC50 (commonly the concentration at which the effect is half-maximal) in the data set on Aβ 1-42 was 250 nM; in the data set with amyloid β 1-40, 470 nM. Further, the “Degradation of amyloid β 1-40 compared to plasma without treatment” value in the data set with amyloid β 1-40 (setting [4]) is on record as 71%. For the same molecule, in data set [2], the “Specific activity (slope coefficient/pmol)” value amounted to 14.1. Further, the Mean plasma exposure was 14 µg/mL in data set [3] (1 mg/kg i.v., 1.5 hours); 17 µg/mL in data set [3] (1 mg/kg i.v., 3 hours); 89 µg/mL in data set [3] (5 mg/kg i.v., 1.5 hours); 78 µg/mL in data set [3] (5 mg/kg i.v., 3 hours).
